Assay results from US11149086B2, “KV1.3 binding immunoglobulins” (Ablynx N.V., priority 2014, dated 2021).

Biological target: T1, human Kv1.3 (Homo sapiens, UniProt P22001)
T1 construct: cell lines stably expressing the full length human Kv1.3 channel
Test: IonWorks Quattro automated perforated patch clamp, Kv1.3-expressing CHL cells
Type: cell-based
Details: 6 to 7 min incubation
Description: Selected Nanobodies were electrophysiologically characterized on human Kv1.3 on the IonWorks automated perforated-Patch Clamp using Kv1.3-expressing Chinese Hamster Lung (CHL) cells. The procedure for evaluating the modulatory effect of the purified Nanobodies on human Kv1.3 via electrophysiological recordings is given below.
IonWorks Quattro (Molecular Devices) is a second-generation screening instrument that provides membrane voltage control and provides a direct electrophysiological assay for screening and characterization of compounds. It is an automated, high-throughput planar perforated patch clamp that uses a 384-well PatchPlate™ substrate.
Extracellular solution contained (in mM): 138 NaCl, 2.7 KCl, 0.9 CaCl2, 0.5 MgCl2, 8 Na2HPO4, and 1.5 KH2PO4 (pH 7.3 with NaOH, and 285-290 mOsmolar). The intracellular solution contained (in mM): 100 K-gluconate, 40 KCl, 3.2 EGTA, 5 HEPES and 3.2 MgCl2 (pH 7.3 with KOH, and 300-315 mOsmolar). These solutions were freshly made, stocked for no longer than a month at 4° C. and filtered prior to use. The selected Nanobodies were directly diluted in extracellular solution to obtain a 3 μM sample solution. […]
The basic principles of IonWorks automated patch clamp electrophysiology are described by Schroeder et al. (J Biomol Screen 8(1):50-64, 2003). […] In PPC mode, an ensemble average of the current from up to 64 cells per well was recorded. […]

T1 sequence (P22001 whole entry): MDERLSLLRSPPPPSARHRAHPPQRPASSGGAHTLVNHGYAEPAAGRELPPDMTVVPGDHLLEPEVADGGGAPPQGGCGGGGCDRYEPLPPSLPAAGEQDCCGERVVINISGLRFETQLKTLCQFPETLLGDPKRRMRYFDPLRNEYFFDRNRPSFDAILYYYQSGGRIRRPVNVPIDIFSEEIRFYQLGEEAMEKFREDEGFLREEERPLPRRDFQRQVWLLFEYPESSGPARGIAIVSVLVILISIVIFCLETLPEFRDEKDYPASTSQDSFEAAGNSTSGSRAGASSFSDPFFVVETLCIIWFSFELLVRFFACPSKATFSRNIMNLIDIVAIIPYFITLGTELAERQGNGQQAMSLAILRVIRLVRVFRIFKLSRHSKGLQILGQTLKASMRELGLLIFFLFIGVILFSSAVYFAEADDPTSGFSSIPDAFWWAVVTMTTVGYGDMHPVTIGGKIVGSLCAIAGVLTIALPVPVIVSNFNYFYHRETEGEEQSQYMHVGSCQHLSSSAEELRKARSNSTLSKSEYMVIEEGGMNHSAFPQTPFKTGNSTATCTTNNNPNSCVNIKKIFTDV

B1: A019400003: monovalent anti-Kv1.3 Nanobody, family 1 (protein)
VHH: EVQLVESGGGLVQAGGSLSLSCTASGGTFRNFGMGWFRQAQGKEREFVAAISRTGGHTYYQDSVKGRFTISKDNAKNILSLQMNSLKPEDTAVYYCAARFRFGDGTYYYQRAFYDFWGQGTQVTVSS
modifications: Nanobody sequence
effect on Kv1.3 current traces on IonWorks, in words: biphasic modulatory effect
